T1: HA-tagged UL128Δ1-27 hCMV protein expressed in HEK293T cells (human cytomegalovirus (hCMV), UniProt P16837 28-171)
T1 construct: mature; not shown: hemagglutinin (HA) tag
T1 sequence: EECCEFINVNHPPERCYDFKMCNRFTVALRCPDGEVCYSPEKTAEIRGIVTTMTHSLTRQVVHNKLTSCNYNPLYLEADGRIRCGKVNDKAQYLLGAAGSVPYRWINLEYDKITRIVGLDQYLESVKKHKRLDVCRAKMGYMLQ

B1: human monoclonal antibody 1F11 (antibody, V domains shown)
VH: QVQLVESGGGVVQPGRSVRLSCVASGFTFSSYAMHWVRQAPGKGLEWVSLISFDGDNKYYADSVRGRFTISRDSSQKTLFLQMNSLRVEDTAIYYCAREELVGLMPPYYNYGLDVWGQGTTVTVSS
VL: QSVLTQPPSVSAAPGQKVTISCSGSSSNIGNNFVSWYQQLPGTAPKLLIYDNDRRPSGIPDRFSGSKSDTSATLVITGLQTGDEADYYCETWDGSLNPAVVFGGGTRLTVL
notes: Human IgG from an EBV-immortalised B cell clone
B2: human monoclonal antibody 2F4 (antibody, V domains shown)
VH: QVQLVESGGGVVQPGRSLRLSCAASGFSFNTYGMHWVRQAPGKGLEWVAVIWDDGSKMYHADSVKGRFTISRDNSKNTLYLQMNSLRAEDTAVYYCARDEGAIMLHAMTDYGLDVWGQGTTVTV
VL: SYELTQPPSVSVSPGQTATITCSGDNLGDEFACWYQQKPGQSPVLVIYQDSKRPSGIPERFSGSSSGNTATLTIRGTQAMDEADYYCQAWDSSTAHYVFGTGTKVTVL
notes: Human IgG from an immortalised B cell clone
B3: human monoclonal antibody 5A2 (antibody, V domains shown)
VH: QVQLVQSGAEVRKPGSSVKVSCKASGGTFSSYVIHWVRQAPGQGLEWMGGIIPIFNTANYAQKVQGRVTITADESTSTAYMELSSLRSEDTAIYYCARDFLSGPMEMPGGYYGLDVWGQGTTVTVSS
VL: not shown
notes: as for B2

biological target: UL130/UL131A of a clinical hCMV isolate (virus used in the neutralisation assay) (human cytomegalovirus (hCMV), UniProt P16772 26-214); assay: cell-based or functional assay

Row | Binder | 50% neutralisation (µg/ml), Endothelial cells [µg/mL] | 50% neutralisation (µg/ml), Fibroblasts [µg/mL]
1 | B1 | 0.001 | > 2
2 | B2 | 0.003 | > 2
3 | B3 | 0.002 | > 2

biological target: T2, HA-tagged UL130Δ1-25 hCMV protein expressed alone in HEK293T cells (human cytomegalovirus (hCMV), UniProt P16772 26-214); assay: FACS staining of fixed, permeabilized transfected HEK293T cells
T2 construct: mature; not shown: hemagglutinin (HA) tag

Row | Binder | binding result
4 | B1 | no binding
5 | B2 | no binding
6 | B3 | no binding

biological target: T1, HA-tagged UL128Δ1-27 hCMV protein …; assay: as above

Row | Binder | binding result
7 | B1 | no binding
8 | B2 | no binding
9 | B3 | no binding
